This experiment deals with the receptor on THP-1 cells. The experiment is described as follows: cell-based or functional assay.

Positions of bridges follow the written chain, without caps; N, C: chain ends. Chains are numbered I, II in the order given. No end group written: not given here.

B1: recombinant human relaxin analog 800814 (ligand)
chain 1: DSWMEEVIKLCGRDLVRAQIAICGMSTWS
chain 2: DLYSALANKCCHVGCTKRSLARFC
modifications: disulfide I:23-II:24; also: two more disulfides among A10, A11, A15 and B11
B1 had an EC50 (ng/ml) of cAMP induced in THP-1 cells (cAMP ELISA) of 1.5 ng/mL.

The values are drawn from patent US20160326230A1, “HUMAN RELAXIN ANALOGUE, PHARMACEUTICAL COMPOSITION OF SAME, AND PHARMACEUTICAL APPLICATION OF SAME” (SHANGHAI HENGRUI PHARMACEUTICAL CO., LTD., priority 2013, published 2016).
